# Reference: the supplement of paper PMC9112550, “Optimization of the antimicrobial peptide Bac7 by deep mutational scanning” (BMC Biology, 2022)
# System: Escherichia coli TOP10
# Assay: shrunken log2 fold change of peptide-encoding DNA abundance (4.5 h post-induction vs induction); higher = less antimicrobial activity (less host growth inhibition)
# Details: time post-induction: 4.5 h; library: site-saturation at positions 5, 18, 19, 20
# 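Further: peptides expressed intracellularly from a pBAD plasmid library in pooled LB shake-flask culture, induced with 0.3% L-arabinose, DNA abundance read by NGS, three biological replicates, DESeq2 with apeglm shrinkage.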
row,Sequence,shrunken log2 fold change
1,RRIRWRPPRLPRPRPRPPECPRP,-0.0729
2,RRIRCRPPRLPRPRPRPKVNPRP,-0.542
3,RRIRARPPRLPRPRPRPQEPPRP,0.744
4,RRIRFRPPRLPRPRPRPRLPPRP,1.13
5,RRIRFRPPRLPRPRPRPVIGPRP,-0.234
6,RRIRKRPPRLPRPRPRPSEMPRP,-0.17
7,RRIRERPPRLPRPRPRPDIKPRP,-0.248
8,RRIRNRPPRLPRPRPRPANDPRP,-0.392
9,RRIRVRPPRLPRPRPRPIPIPRP,-0.106
10,RRIRCRPPRLPRPRPRPTGRPRP,0.238
11,RRIRERPPRLPRPRPRPNAEPRP,0.103
12,RRIRQRPPRLPRPRPRPWTCPRP,0.0112
13,RRIRARPPRLPRPRPRPDGSPRP,0.0886
14,RRIRWRPPRLPRPRPRPNVTPRP,-0.22
15,RRIRGRPPRLPRPRPRPDPVPRP,0.951
16,RRIRRRPPRLPRPRPRPTMGPRP,0.0489
17,RRIRVRPPRLPRPRPRPRYPPRP,-0.294
18,RRIRTRPPRLPRPRPRPISYPRP,0.061
19,RRIRQRPPRLPRPRPRPYTDPRP,-0.209
20,RRIRYRPPRLPRPRPRPSVSPRP,-0.747
21,RRIRCRPPRLPRPRPRPNGIPRP,-0.117
22,RRIRNRPPRLPRPRPRPELWPRP,0.604

row,Sequence,shrunken log2 fold change
1,RRIRMRPPRLPRPRPRPVMTPRP,0.148
2,RRIRDRPPRLPRPRPRPVHGPRP,1.43
3,RRIRCRPPRLPRPRPRPLPPPRP,0.733
4,RRIRERPPRLPRPRPRPFESPRP,0.00731
5,RRIRSRPPRLPRPRPRPFMEPRP,-0.54
6,RRIRCRPPRLPRPRPRPLMQPRP,0.0849
7,RRIRNRPPRLPRPRPRPCDEPRP,-0.035
8,RRIRLRPPRLPRPRPRPPFHPRP,-0.0331
9,RRIRARPPRLPRPRPRPYPYPRP,-0.152
10,RRIRGRPPRLPRPRPRPGTCPRP,0.165
11,RRIRWRPPRLPRPRPRPRSIPRP,-0.006
12,RRIRPRPPRLPRPRPRPEHMPRP,-0.0558
13,RRIRQRPPRLPRPRPRPTPPPRP,0.537
14,RRIRDRPPRLPRPRPRPGVIPRP,-0.00423
15,RRIRDRPPRLPRPRPRPFSPPRP,-0.158
16,RRIRHRPPRLPRPRPRPDSYPRP,-0.0167
17,RRIRFRPPRLPRPRPRPNELPRP,-0.0316
18,RRIRYRPPRLPRPRPRPNNHPRP,-1.1
19,RRIRSRPPRLPRPRPRPMFDPRP,-0.0808
20,RRIRWRPPRLPRPRPRPSMMPRP,0.157
21,RRIRQRPPRLPRPRPRPGHLPRP,-0.0699
22,RRIRRRPPRLPRPRPRPFDPPRP,0.504

row,Sequence,shrunken log2 fold change
1,RRIRERPPRLPRPRPRPNDRPRP,-0.426
2,RRIRNRPPRLPRPRPRPAGDPRP,0.395
3,RRIRWRPPRLPRPRPRPRIAPRP,0.133
4,RRIRDRPPRLPRPRPRPVYDPRP,-0.434
5,RRIRARPPRLPRPRPRPCMTPRP,0.591
6,RRIRFRPPRLPRPRPRPISSPRP,-0.0616
7,RRIRHRPPRLPRPRPRPGLSPRP,-0.0763
8,RRIRNRPPRLPRPRPRPTGYPRP,-0.0249
9,RRIRPRPPRLPRPRPRPRSWPRP,0.533
10,RRIRGRPPRLPRPRPRPDFAPRP,0.724
11,RRIRLRPPRLPRPRPRPLIKPRP,-0.273
12,RRIRSRPPRLPRPRPRPQGQPRP,-0.154
13,RRIRCRPPRLPRPRPRPWICPRP,-1
14,RRIRRRPPRLPRPRPRPMMMPRP,0.0332
15,RRIRQRPPRLPRPRPRPKNVPRP,0.225
16,RRIRYRPPRLPRPRPRPNVHPRP,-0.745
17,RRIRIRPPRLPRPRPRPLKWPRP,-0.535
18,RRIRHRPPRLPRPRPRPDFEPRP,0.18
19,RRIRWRPPRLPRPRPRPVTIPRP,-0.269
20,RRIRKRPPRLPRPRPRPLELPRP,0.134
21,RRIRVRPPRLPRPRPRPWPTPRP,0.266
22,RRIRYRPPRLPRPRPRPDLTPRP,-0.0272

row,Sequence,shrunken log2 fold change
1,RRIRDRPPRLPRPRPRPCNRPRP,-0.0148
2,RRIRERPPRLPRPRPRPASYPRP,-0.0425
3,RRIRIRPPRLPRPRPRPPKNPRP,-0.159
4,RRIRARPPRLPRPRPRPDKIPRP,0.299
5,RRIRHRPPRLPRPRPRPQCGPRP,-0.333
6,RRIRGRPPRLPRPRPRPNTLPRP,-0.145
7,RRIRERPPRLPRPRPRPQGLPRP,-0.141
8,RRIRMRPPRLPRPRPRPSVTPRP,0.703
9,RRIRKRPPRLPRPRPRPKKPPRP,0.0909
10,RRIRARPPRLPRPRPRPGKVPRP,0.0119
11,RRIRNRPPRLPRPRPRPNQVPRP,-0.255
12,RRIRYRPPRLPRPRPRPAKNPRP,-0.508
13,RRIRPRPPRLPRPRPRPFNKPRP,-0.468
14,RRIRIRPPRLPRPRPRPTSSPRP,-0.25
15,RRIRYRPPRLPRPRPRPDAAPRP,0.294
16,RRIRKRPPRLPRPRPRPNAHPRP,0.208
17,RRIRPRPPRLPRPRPRPERPPRP,0.309
18,RRIRMRPPRLPRPRPRPKAKPRP,0.0227
19,RRIRDRPPRLPRPRPRPTNIPRP,-0.271
20,RRIRIRPPRLPRPRPRPDIDPRP,-0.151
21,RRIRDRPPRLPRPRPRPLLNPRP,0.124
22,RRIRRRPPRLPRPRPRPMYMPRP,-0.212

row,Sequence,shrunken log2 fold change
1,RRIRRRPPRLPRPRPRPMCMPRP,-0.0115
2,RRIRQRPPRLPRPRPRPTICPRP,-0.114
3,RRIRGRPPRLPRPRPRPVHFPRP,0.562
4,RRIRVRPPRLPRPRPRPPWFPRP,0.0493
5,RRIRQRPPRLPRPRPRPKAIPRP,0.0432
6,RRIRERPPRLPRPRPRPVWEPRP,0.239
7,RRIRGRPPRLPRPRPRPSPAPRP,0.901
8,RRIRNRPPRLPRPRPRPWKNPRP,0.175
9,RRIRVRPPRLPRPRPRPLLVPRP,-0.101
10,RRIRMRPPRLPRPRPRPTQAPRP,0.0839
11,RRIRWRPPRLPRPRPRPRCAPRP,0.586
12,RRIRCRPPRLPRPRPRPHYAPRP,-0.299
13,RRIRDRPPRLPRPRPRPFMCPRP,-0.0266
14,RRIRPRPPRLPRPRPRPWKTPRP,-0.225
15,RRIRTRPPRLPRPRPRPKLEPRP,-0.0598
16,RRIRHRPPRLPRPRPRPSMKPRP,-0.436
17,RRIRCRPPRLPRPRPRPTMWPRP,0.259
18,RRIRRRPPRLPRPRPRPISFPRP,-0.27
19,RRIRDRPPRLPRPRPRPPYYPRP,-0.474
20,RRIRGRPPRLPRPRPRPQIYPRP,0.185
21,RRIRDRPPRLPRPRPRPNEQPRP,-0.0164
